± gives the uncertainty stated by the source.
B1: Myocardin-related transcription factor A, residues 341 to 383; numbered along this chain, Q969V6 (parent)
chain: GALPANLDDMKVAELKQELKLRSLPVSGTKTELIERLRAYQDQ

Variants of: B1
Assay: abundance fitness (aPCA) (normalised: wild type 0, dead -1); higher = more abundant; growth selection in yeast, the domain comes from the species named
Details: Homo sapiens
In the case of GALCANLDDMKVAELKQELKLRSLPVSGTKTELIERLRAYQDQ, the abundance fitness is reported as 0.211 ± 0.081. With GALSANLDDMKVAELKQELKLRSLPVSGTKTELIERLRAYQDQ the abundance fitness was 0.245 ± 0.065. Variant GALDANLDDMKVAELKQELKLRSLPVSGTKTELIERLRAYQDQ has an abundance fitness of 0.213 ± 0.066. Variant GALYANLDDMKVAELKQELKLRSLPVSGTKTELIERLRAYQDQ has an abundance fitness of 0.29 ± 0.14. In the case of GALWANLDDMKVAELKQELKLRSLPVSGTKTELIERLRAYQDQ, the abundance fitness is reported as 0.057 ± 0.081. Work on GALVANLDDMKVAELKQELKLRSLPVSGTKTELIERLRAYQDQ yielded an abundance fitness of 0.29 ± 0.098. For GALKANLDDMKVAELKQELKLRSLPVSGTKTELIERLRAYQDQ, the abundance fitness was 0.17 ± 0.12. GALAANLDDMKVAELKQELKLRSLPVSGTKTELIERLRAYQDQ showed an abundance fitness of 0.079 ± 0.059. GALQANLDDMKVAELKQELKLRSLPVSGTKTELIERLRAYQDQ gave an abundance fitness of 0.293 ± 0.2. Variant GALFANLDDMKVAELKQELKLRSLPVSGTKTELIERLRAYQDQ has an abundance fitness of -0.263 ± 0.24. Work on GALGANLDDMKVAELKQELKLRSLPVSGTKTELIERLRAYQDQ yielded an abundance fitness of 0.217 ± 0.064. In the case of GALMANLDDMKVAELKQELKLRSLPVSGTKTELIERLRAYQDQ, the abundance fitness is reported as 0.196 ± 0.15. Work on GALLANLDDMKVAELKQELKLRSLPVSGTKTELIERLRAYQDQ yielded an abundance fitness of 0.322 ± 0.11. Variant GALTANLDDMKVAELKQELKLRSLPVSGTKTELIERLRAYQDQ has an abundance fitness of 0.243 ± 0.078. In the case of GALHANLDDMKVAELKQELKLRSLPVSGTKTELIERLRAYQDQ, the abundance fitness is reported as 0.093 ± 0.1. With GALIANLDDMKVAELKQELKLRSLPVSGTKTELIERLRAYQDQ the abundance fitness was 0.301 ± 0.12. For GALEANLDDMKVAELKQELKLRSLPVSGTKTELIERLRAYQDQ, the abundance fitness was 0.349 ± 0.11. GALRANLDDMKVAELKQELKLRSLPVSGTKTELIERLRAYQDQ showed an abundance fitness of 0.219 ± 0.061. In the case of GASPANLDDMKVAELKQELKLRSLPVSGTKTELIERLRAYQDQ, the abundance fitness is reported as -0.031 ± 0.12. In the case of GAYPANLDDMKVAELKQELKLRSLPVSGTKTELIERLRAYQDQ, the abundance fitness is reported as 0.502 ± 0.15. For GAVPANLDDMKVAELKQELKLRSLPVSGTKTELIERLRAYQDQ, the abundance fitness was 0.073 ± 0.078. For GAWPANLDDMKVAELKQELKLRSLPVSGTKTELIERLRAYQDQ, the abundance fitness was -0.122 ± 0.14. Work on GATPANLDDMKVAELKQELKLRSLPVSGTKTELIERLRAYQDQ yielded an abundance fitness of -0.598 ± 0.15. For GALPENLDDMKVAELKQELKLRSLPVSGTKTELIERLRAYQDQ, the abundance fitness was 0.216 ± 0.089. For GALPPNLDDMKVAELKQELKLRSLPVSGTKTELIERLRAYQDQ, the abundance fitness was -0.845 ± 0.077. In the case of GALPMNLDDMKVAELKQELKLRSLPVSGTKTELIERLRAYQDQ, the abundance fitness is reported as 0.292 ± 0.07. For GALPQNLDDMKVAELKQELKLRSLPVSGTKTELIERLRAYQDQ, the abundance fitness was -0.025 ± 0.099. GALPGNLDDMKVAELKQELKLRSLPVSGTKTELIERLRAYQDQ showed an abundance fitness of 0.081 ± 0.059. GALPNNLDDMKVAELKQELKLRSLPVSGTKTELIERLRAYQDQ showed an abundance fitness of 0.215 ± 0.088. GALPFNLDDMKVAELKQELKLRSLPVSGTKTELIERLRAYQDQ gave an abundance fitness of -0.012 ± 0.17. In the case of GALPSNLDDMKVAELKQELKLRSLPVSGTKTELIERLRAYQDQ, the abundance fitness is reported as -0.107 ± 0.073. GALPLNLDDMKVAELKQELKLRSLPVSGTKTELIERLRAYQDQ showed an abundance fitness of 0.045 ± 0.071. Variant GALPWNLDDMKVAELKQELKLRSLPVSGTKTELIERLRAYQDQ has an abundance fitness of -0.655 ± 0.085. For GALPINLDDMKVAELKQELKLRSLPVSGTKTELIERLRAYQDQ, the abundance fitness was 0.249 ± 0.14. In the case of GALPTNLDDMKVAELKQELKLRSLPVSGTKTELIERLRAYQDQ, the abundance fitness is reported as 0.185 ± 0.069. GALPKNLDDMKVAELKQELKLRSLPVSGTKTELIERLRAYQDQ showed an abundance fitness of 0.109 ± 0.097. With GALPRNLDDMKVAELKQELKLRSLPVSGTKTELIERLRAYQDQ the abundance fitness was 0.064 ± 0.068. GALPAMLDDMKVAELKQELKLRSLPVSGTKTELIERLRAYQDQ showed an abundance fitness of 0.135 ± 0.072. Work on GALPALLDDMKVAELKQELKLRSLPVSGTKTELIERLRAYQDQ yielded an abundance fitness of -0.124 ± 0.072. With GALPARLDDMKVAELKQELKLRSLPVSGTKTELIERLRAYQDQ the abundance fitness was -0.048 ± 0.071. For GALPAHLDDMKVAELKQELKLRSLPVSGTKTELIERLRAYQDQ, the abundance fitness was -0.661 ± 0.24. Work on GALPAALDDMKVAELKQELKLRSLPVSGTKTELIERLRAYQDQ yielded an abundance fitness of -0.229 ± 0.084. In the case of GALPAPLDDMKVAELKQELKLRSLPVSGTKTELIERLRAYQDQ, the abundance fitness is reported as -1.5 ± 0.12. Variant GALPADLDDMKVAELKQELKLRSLPVSGTKTELIERLRAYQDQ has an abundance fitness of -0.189 ± 0.1. Variant GALPAVLDDMKVAELKQELKLRSLPVSGTKTELIERLRAYQDQ has an abundance fitness of -0.127 ± 0.1. GALPAGLDDMKVAELKQELKLRSLPVSGTKTELIERLRAYQDQ showed an abundance fitness of 0.044 ± 0.074. Work on GALPAQLDDMKVAELKQELKLRSLPVSGTKTELIERLRAYQDQ yielded an abundance fitness of -0.212 ± 0.092. Work on GALPAELDDMKVAELKQELKLRSLPVSGTKTELIERLRAYQDQ yielded an abundance fitness of -0.007 ± 0.071. For GALPAWLDDMKVAELKQELKLRSLPVSGTKTELIERLRAYQDQ, the abundance fitness was -0.76 ± 0.13. In the case of GALPAKLDDMKVAELKQELKLRSLPVSGTKTELIERLRAYQDQ, the abundance fitness is reported as 0.157 ± 0.074. With GALPAFLDDMKVAELKQELKLRSLPVSGTKTELIERLRAYQDQ the abundance fitness was -0.431 ± 0.1. With GALPANGDDMKVAELKQELKLRSLPVSGTKTELIERLRAYQDQ the abundance fitness was -0.305 ± 0.064. Variant GALPANCDDMKVAELKQELKLRSLPVSGTKTELIERLRAYQDQ has an abundance fitness of -0.157 ± 0.14. For GALPANRDDMKVAELKQELKLRSLPVSGTKTELIERLRAYQDQ, the abundance fitness was -0.614 ± 0.077. Variant GALPANHDDMKVAELKQELKLRSLPVSGTKTELIERLRAYQDQ has an abundance fitness of -0.87 ± 0.17. For GALPANQDDMKVAELKQELKLRSLPVSGTKTELIERLRAYQDQ, the abundance fitness was -0.763 ± 0.14. Work on GALPANDDDMKVAELKQELKLRSLPVSGTKTELIERLRAYQDQ yielded an abundance fitness of -1.17 ± 0.17. With GALPANADDMKVAELKQELKLRSLPVSGTKTELIERLRAYQDQ the abundance fitness was -0.097 ± 0.062. With GALPANEDDMKVAELKQELKLRSLPVSGTKTELIERLRAYQDQ the abundance fitness was -0.924 ± 0.096.

From the Human Domainome abundance scans (Beltran et al. 2025)
